Drawing on PMC10256740, this text covers log2 mean centrosome recruitment, fold enrichment of co-precipitated EGFP-MBNL1 as compared to Kif1bβ and log2 mean centrosome enrichment for two substances.

Like-named read-outs stand apart in the source and are kept apart here.

Experiment [1] has as its target FLAG-tagged BicD2-Kif1c tail fusion (mouse) (UniProt O35071). Put plainly: centrosome recruitment assay with BicD2-kinesin tail fusions (relocalisation in cells, microscopy); N2A cells transfected with FLAG-BicD2-KIF tail fusion and EGFP-tagged RBP (2:3), fixed after 24 h, anti-FLAG staining; read-out log2 of the mean EGFP intensity at the centrosome over the mean intensity in the whole cell.

The target in experiment [2] is FLAG-tagged BicD2-Kif1bα tail fusion (mouse) (UniProt Q60575). The experiment is described as above.
Experiment [3] deals with mScarlet-I-Kif1bα (full-length kinesin) (mouse) (UniProt Q60575). In words: co-IP; N2A cells 48 h after co-transfection of EGFP-MBNL1-41 and mScarlet-Kif plasmids; lysis in 10 mM Tris-HCl pH 7.5, 150 mM NaCl, 0.5 mM EDTA, 0.5% NP-40; RFP-Trap magnetic agarose 1 h at 4 °C; western blot, quantitation normalized to input. Background: A western blot detects proteins with antibodies after separation by electrophoresis.

For experiment [4], the target named is mScarlet-I-Kif1c (full-length kinesin) (mouse) (UniProt O35071). The experiment is described as above.
The target in experiment [5] is FLAG-tagged BicD2-Kif1c tail fusion (mouse) (UniProt O35071). In words: centrosome recruitment assay with BicD2-kinesin tail fusions (relocalisation in cells, microscopy); N2A cells transfected with FLAG-BicD2-KIF tail fusion and EGFP-tagged RBP (2:3), fixed after 24 h, anti-FLAG staining; read-out log2 of the mean EGFP intensity at the centrosome over the mean intensity in the whole cell. This is another data set of the same source.
FLAG-tagged BicD2-Kif1c tail fusion (mouse), sequence (O35071 whole entry, the tested form may be a part): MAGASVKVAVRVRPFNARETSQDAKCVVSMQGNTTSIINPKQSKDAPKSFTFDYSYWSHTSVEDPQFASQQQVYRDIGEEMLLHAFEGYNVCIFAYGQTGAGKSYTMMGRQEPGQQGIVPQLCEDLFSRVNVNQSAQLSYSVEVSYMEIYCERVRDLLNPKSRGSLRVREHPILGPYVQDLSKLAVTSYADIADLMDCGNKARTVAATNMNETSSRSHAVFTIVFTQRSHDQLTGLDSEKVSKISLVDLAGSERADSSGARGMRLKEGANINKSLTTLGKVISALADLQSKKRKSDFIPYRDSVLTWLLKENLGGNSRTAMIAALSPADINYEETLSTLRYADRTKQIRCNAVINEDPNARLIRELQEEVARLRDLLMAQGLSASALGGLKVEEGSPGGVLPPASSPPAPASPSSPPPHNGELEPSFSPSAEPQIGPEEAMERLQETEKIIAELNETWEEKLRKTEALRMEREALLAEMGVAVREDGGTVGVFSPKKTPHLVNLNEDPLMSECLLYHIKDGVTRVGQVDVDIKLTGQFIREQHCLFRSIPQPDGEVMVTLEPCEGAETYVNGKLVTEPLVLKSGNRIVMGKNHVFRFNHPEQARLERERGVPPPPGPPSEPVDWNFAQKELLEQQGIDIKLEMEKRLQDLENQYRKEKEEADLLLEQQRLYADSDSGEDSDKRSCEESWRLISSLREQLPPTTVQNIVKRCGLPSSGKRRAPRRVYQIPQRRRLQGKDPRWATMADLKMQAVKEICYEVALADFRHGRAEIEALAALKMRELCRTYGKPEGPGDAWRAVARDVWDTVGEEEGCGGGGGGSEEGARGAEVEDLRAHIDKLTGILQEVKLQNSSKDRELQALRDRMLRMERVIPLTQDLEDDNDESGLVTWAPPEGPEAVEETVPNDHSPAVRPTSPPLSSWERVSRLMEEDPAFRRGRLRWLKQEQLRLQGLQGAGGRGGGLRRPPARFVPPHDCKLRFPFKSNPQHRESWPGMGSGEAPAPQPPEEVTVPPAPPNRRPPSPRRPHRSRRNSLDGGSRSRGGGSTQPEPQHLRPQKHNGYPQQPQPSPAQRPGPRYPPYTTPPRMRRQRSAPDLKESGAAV

EGFP-MBNL1-41 (41 kDa isoform of MBNL1) (natural protein), sequence (Q9NR56 whole entry, canonical isoform): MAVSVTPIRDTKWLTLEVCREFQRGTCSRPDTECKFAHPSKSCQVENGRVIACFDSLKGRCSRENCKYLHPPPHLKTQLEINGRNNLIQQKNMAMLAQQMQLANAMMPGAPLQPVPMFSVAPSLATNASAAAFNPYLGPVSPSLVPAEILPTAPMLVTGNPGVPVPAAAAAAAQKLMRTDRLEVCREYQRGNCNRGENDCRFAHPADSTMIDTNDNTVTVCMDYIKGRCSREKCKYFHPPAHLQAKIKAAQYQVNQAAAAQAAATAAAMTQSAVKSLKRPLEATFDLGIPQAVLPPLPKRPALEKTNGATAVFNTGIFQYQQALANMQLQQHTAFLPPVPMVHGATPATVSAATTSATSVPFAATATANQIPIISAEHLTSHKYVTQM
EGFP-Cpsf4, sequence (Q8BQZ5 whole entry): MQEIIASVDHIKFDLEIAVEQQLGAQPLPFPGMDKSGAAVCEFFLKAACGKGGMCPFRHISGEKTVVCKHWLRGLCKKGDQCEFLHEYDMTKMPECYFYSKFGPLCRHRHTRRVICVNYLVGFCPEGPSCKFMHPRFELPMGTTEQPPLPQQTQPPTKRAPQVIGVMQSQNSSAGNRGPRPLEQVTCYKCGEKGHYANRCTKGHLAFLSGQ
FLAG-tagged BicD2-Kif1bα tail fusion (mouse), sequence (Q60575 other isoform, or with tags, fused parts or gaps): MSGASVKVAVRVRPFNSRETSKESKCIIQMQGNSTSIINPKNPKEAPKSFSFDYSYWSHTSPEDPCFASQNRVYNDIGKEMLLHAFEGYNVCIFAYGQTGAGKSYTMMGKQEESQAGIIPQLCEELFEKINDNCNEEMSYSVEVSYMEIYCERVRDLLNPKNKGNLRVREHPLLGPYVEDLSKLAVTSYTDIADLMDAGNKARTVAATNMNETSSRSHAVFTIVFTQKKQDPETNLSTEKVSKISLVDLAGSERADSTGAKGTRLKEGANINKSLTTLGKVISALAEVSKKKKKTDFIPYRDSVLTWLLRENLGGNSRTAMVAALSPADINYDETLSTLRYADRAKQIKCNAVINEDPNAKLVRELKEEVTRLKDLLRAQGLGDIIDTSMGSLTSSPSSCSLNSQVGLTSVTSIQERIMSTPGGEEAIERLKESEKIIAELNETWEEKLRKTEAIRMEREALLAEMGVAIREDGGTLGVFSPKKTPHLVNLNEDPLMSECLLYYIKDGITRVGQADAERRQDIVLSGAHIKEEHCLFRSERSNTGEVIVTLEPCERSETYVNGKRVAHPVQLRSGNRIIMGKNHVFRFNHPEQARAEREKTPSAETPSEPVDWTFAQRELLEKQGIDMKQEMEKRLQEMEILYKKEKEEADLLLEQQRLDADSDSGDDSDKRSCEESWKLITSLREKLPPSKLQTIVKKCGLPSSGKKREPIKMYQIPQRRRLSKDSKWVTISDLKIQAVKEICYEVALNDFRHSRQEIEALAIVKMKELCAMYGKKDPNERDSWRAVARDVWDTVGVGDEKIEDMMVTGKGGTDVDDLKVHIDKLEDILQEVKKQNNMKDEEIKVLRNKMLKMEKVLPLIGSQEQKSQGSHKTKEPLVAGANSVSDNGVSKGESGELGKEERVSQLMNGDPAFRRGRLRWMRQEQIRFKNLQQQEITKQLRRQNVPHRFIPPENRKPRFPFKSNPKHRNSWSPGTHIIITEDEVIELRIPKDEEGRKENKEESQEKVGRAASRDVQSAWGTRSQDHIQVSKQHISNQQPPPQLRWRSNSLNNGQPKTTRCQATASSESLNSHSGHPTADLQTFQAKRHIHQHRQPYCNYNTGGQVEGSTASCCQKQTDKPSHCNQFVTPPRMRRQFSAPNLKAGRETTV
mScarlet-I-Kif1c (full-length kinesin) (mouse), sequence (O35071 whole entry, the tested form may be a part): as the sequence (O35071 whole entry, the tested form may be a part) above
mScarlet-I-Kif1bα (full-length kinesin) (mouse), sequence (Q60575 other isoform, or with tags, fused parts or gaps): as the sequence (Q60575 other isoform, or with tags, fused parts or gaps) above

“EGFP-Cpsf4 (from UniProt Q8BQZ5 1-211) (natural protein)”: the log2 mean centrosome recruitment in experiment [1] is 1.52 log2; in experiment [2] it was 1.71 log2.

Consider “EGFP-MBNL1-41 (41 kDa isoform of MBNL1) (natural protein)”, for which the fold enrichment of co-precipitated EGFP-MBNL1 as compared to Kif1bβ in experiment [3] and in experiment [4] was 10 fold in each case. The figures for the log2 mean centrosome enrichment in experiment [1], in experiment [2] and in experiment [5] were 0.56 log2, 0.506 log2 and 0.497 log2, respectively.
